Measured values: US20210292396A1
Substitutions are numbered along the chain they refer to.

Experiments:
Experiment in all cases: cell-based or functional assay
[1] = biological target: HIV Env of isolate 25711-2.4 (HIV)
[2] = biological target: Env of HIV isolate 25711-2.4 (clade C) (HIV)
[3] = biological target: HIV Env of isolate CNE53 (HIV)
[4] = biological target: HIV Env of isolate X1193.c1 (HIV)
[5] = biological target: Env of HIV isolate DU156.12 (clade C) (HIV)
[6] = biological target: Env of HIV isolate T255-34 (clade AG) (HIV)
[7] = biological target: Env of HIV isolate 89.6.DG (clade B) (HIV)
[8] = biological target: Env of HIV isolate CH119.10 (clade BC) (HIV)
Envelope of SVA.MLV = biological target: Envelope of SVA.MLV
[9] = biological target: HIV Env of isolate X2088.c9 (HIV)
[10] = biological target: Env of HIV isolate T253-11 (clade AG) (HIV)
[11] = biological target: HIV Env of isolate ZM106.9 (HIV)
[12] = biological target: HIV Env of isolate 3637.v5.c3 (HIV)
[13] = biological target: Env of HIV isolate NKU3006.ec1 (clade D) (HIV)
[14] = biological target: Env of HIV isolate 57128.vrc15 (clade D) (HIV)
[15] = biological target: Env of HIV isolate Ce1176.A3 (clade C) (HIV)
[16] = biological target: Env of HIV isolate ZM215.8 (clade C) (HIV)
[17] = biological target: Env of HIV isolate 00836-2.5 (clade C) (HIV)
[18] = biological target: HIV Env of isolate 3326.v4.c3 (HIV)
[19] = biological target: Env of HIV isolate 3365.v2.c20 (clade A) (HIV)
[20] = biological target: Env of HIV isolate TH023.6 (clade AE) (HIV)
[21] = biological target: HIV Env of isolate 0921.v2.c14 (HIV)
[22] = biological target: Env of HIV isolate 3415.v1.c1 (clade A) (HIV)
[23] = biological target: Env of HIV isolate 235-47 (clade AG) (HIV)
[24] = biological target: Env of HIV isolate BaL.26 (clade B) (HIV)
[25] = biological target: HIV Env of isolate CNE58 (HIV)
[26] = biological target: Env of HIV isolate 242-14 (clade AG) (HIV)
[27] = biological target: HIV Env of isolate CNE15 (HIV)
[28] = biological target: Env of HIV isolate CNE19 (clade BC) (HIV)
[29] = biological target: HIV Env of isolate A07412M1.vrc12 (HIV)
[30] = biological target: HIV Env of isolate CNE21 (HIV)
[31] = biological target: Env of HIV isolate RHPA.7 (clade B) (HIV)
[32] = biological target: Env of HIV isolate Q461.e2 (clade AD) (HIV)
[33] = biological target: HIV Env of isolate Ce1176.A3 (HIV)
[34] = biological target: Env of HIV isolate P1981.C5.3 (clade G) (HIV)
[35] = biological target: HIV Env of isolate DU123.06 (HIV)
[36] = biological target: HIV Env of isolate 6405.v4.c34 (HIV)
[37] = biological target: Env of HIV isolate 25710-2.43 (clade C) (HIV)
[38] = biological target: Env of HIV isolate CH038.12 (clade BC) (HIV)
[39] = biological target: Env of HIV isolate BI369.9A (clade A) (HIV)
[40] = biological target: Env of HIV isolate CNE3 (clade AE) (HIV)
[41] = biological target: HIV Env of isolate P0402.c2.11 (HIV)
[42] = biological target: Env of HIV isolate T280-5 (clade AG) (HIV)
[43] = biological target: Env of HIV isolate 928-28 (clade AG) (HIV)
[44] = biological target: HIV Env of isolate CNE31 (HIV)
[45] = biological target: Env of HIV isolate 231965.c01 (clade D) (HIV)
[46] = biological target: Env of HIV isolate CE703010217.B6 (clade C) (HIV)
[47] = biological target: Env of HIV isolate T257-31 (clade AG) (HIV)
[48] = biological target: Env of HIV isolate ADA.DG (clade B) (HIV)
[49] = biological target: Env of HIV isolate BR025.9 (clade C) (HIV)

B1: ePGT121.18 (ePGT121.18.H1 VH and ePGT121.17.L1 VL) (antibody, V domains shown)
VH: QMQLQESGPGLVKPGETLSLTCSVSGASISSSYWSWLRETPGKGLEWIGYTHHSGDTNYAPSLKSRVHLGLHPSKNQVSLSLTSVTAADTAVYYCARTLHGRRIYGVVAFNEYYTYFYWPTWGKGTQVTVSS
VL: SDISVAPGETVRITCGGESIGSRAVQWYQHRPGQAPRLIIYNNQDRPPGIPERFSGSPDIDFGTTATLTISNVEAGDEATYYCHIWDSRRPTNWELGPGTTLTVL
[1]
  IC80, pseudovirus neutralization (M1): 5 ng/mL
  IC80, pseudovirus neutralization (M2): 6 ng/mL
[2]
  IC50, pseudovirus neutralization: 2 ng/mL
[3]
  IC80, pseudovirus neutralization (M1): 6 ng/mL
  IC80, pseudovirus neutralization (M2): 9 ng/mL
[4]
  IC80, pseudovirus neutralization (M1): 4 ng/mL
  IC80, pseudovirus neutralization (M2): 5 ng/mL
[5]
  IC50, pseudovirus neutralization: 1 ng/mL
[6]
  IC50, pseudovirus neutralization: 16 ng/mL
[7]
  IC50, pseudovirus neutralization: 1 ng/mL
[8]
  IC50, pseudovirus neutralization: 4 ng/mL
Envelope of SVA.MLV
  IC80, pseudovirus neutralization (M1): > 50000 ng/mL
  IC80, pseudovirus neutralization (M2): > 50000 ng/mL
[9]
  IC80, pseudovirus neutralization (M1): 5 ng/mL
  IC80, pseudovirus neutralization (M2): 9 ng/mL
[10]
  IC50, pseudovirus neutralization: 4 ng/mL
[11]
  IC80, pseudovirus neutralization (M1): 3 ng/mL
  IC80, pseudovirus neutralization (M2): 4 ng/mL
[12]
  IC80, pseudovirus neutralization (M1): > 50000 ng/mL
  IC80, pseudovirus neutralization (M2): > 50000 ng/mL
[13]
  IC50, pseudovirus neutralization: > 50000 ng/mL
[14]
  IC50, pseudovirus neutralization: 4 ng/mL
[15]
  IC50, pseudovirus neutralization: 3 ng/mL
[16]
  IC50, pseudovirus neutralization: 6 ng/mL
[17]
  IC50, pseudovirus neutralization: 14400 ng/mL
[18]
  IC80, pseudovirus neutralization (M1): 2150 ng/mL
  IC80, pseudovirus neutralization (M2): 6860 ng/mL
[19]
  IC50, pseudovirus neutralization: 4 ng/mL
[20]
  IC50, pseudovirus neutralization: > 50000 ng/mL
[21]
  IC80, pseudovirus neutralization (M1): 1030 ng/mL
  IC80, pseudovirus neutralization (M2): 1490 ng/mL
[22]
  IC50, pseudovirus neutralization: 6 ng/mL
[23]
  IC50, pseudovirus neutralization: 6 ng/mL
[24]
  IC50, pseudovirus neutralization: 2 ng/mL
[25]
  IC80, pseudovirus neutralization (M1): 39 ng/mL
  IC80, pseudovirus neutralization (M2): 33 ng/mL
[26]
  IC50, pseudovirus neutralization: 17300 ng/mL
[27]
  IC80, pseudovirus neutralization (M1): 36400 ng/mL
  IC80, pseudovirus neutralization (M2): > 50000 ng/mL
[28]
  IC50, pseudovirus neutralization: 1 ng/mL
[29]
  IC80, pseudovirus neutralization (M1): 7 ng/mL
  IC80, pseudovirus neutralization (M2): 6 ng/mL
[30]
  IC80, pseudovirus neutralization (M1): 2 ng/mL
  IC80, pseudovirus neutralization (M2): 2 ng/mL
[31]
  IC50, pseudovirus neutralization: 2 ng/mL
[32]
  IC50, pseudovirus neutralization: > 50000 ng/mL
[33]
  IC80, pseudovirus neutralization (M1): 6 ng/mL
  IC80, pseudovirus neutralization (M2): 6 ng/mL
[34]
  IC50, pseudovirus neutralization: 1 ng/mL
[35]
  IC80, pseudovirus neutralization (M1): 6 ng/mL
  IC80, pseudovirus neutralization (M2): 5 ng/mL
[36]
  IC80, pseudovirus neutralization (M1): 4 ng/mL
  IC80, pseudovirus neutralization (M2): 5 ng/mL
[37]
  IC50, pseudovirus neutralization: 4 ng/mL
[38]
  IC50, pseudovirus neutralization: 0.8 ng/mL
[39]
  IC50, pseudovirus neutralization: 1 ng/mL
[40]
  IC50, pseudovirus neutralization: > 50000 ng/mL
[41]
  IC80, pseudovirus neutralization (M1): 4 ng/mL
  IC80, pseudovirus neutralization (M2): 5 ng/mL
[42]
  IC50, pseudovirus neutralization: 2 ng/mL
[43]
  IC50, pseudovirus neutralization: 76 ng/mL
[44]
  IC80, pseudovirus neutralization (M1): 49 ng/mL
  IC80, pseudovirus neutralization (M2): 78 ng/mL
[45]
  IC50, pseudovirus neutralization: 9170 ng/mL
[46]
  IC50, pseudovirus neutralization: 2 ng/mL
[47]
  IC50, pseudovirus neutralization: > 50000 ng/mL
[48]
  IC50, pseudovirus neutralization: 2 ng/mL
[49]
  IC50, pseudovirus neutralization: 1 ng/mL

B2: ePGT121.15.H2.L1 (antibody, V domains shown)
VH: B1 VH with Y113W, Y114F, P120E, T121V
VL: B1 VL with T14S, P32A, R37K, S71T, E95V, L96F, P98G
[3]
  neutralization (Table 6 value): 0.00162
[25]
  neutralization (Table 6 value): 0.00464
[29]
  neutralization (Table 6 value): 0.000944
[30]
  neutralization (Table 6 value): 0.000874
